Data published in patent publication US8124087B2, “Methods of controlling bone loss by inhibiting DKK1” (Board of Trustees of the University of Arkansas, priority 2002, dated 2012).

How the values were obtained:
[1] = tested on: multiple myeloma plasma cells; assay: Gene expression profiling of plasma cells before and after 48 hour in vivo drug treatment; set-up: species or system human; conditions: 48 hour in vivo treatment of patients
Source text: Following Ficoll-Hypaque gradient centrifugation, plasma cells obtained from the bone marrow were isolated from the mononuclear cell fraction by immunomagnetic bead selection using a monoclonal mouse anti-human CD138 antibody (Miltenyi-Biotec, Auburn, Calif.). More than 90 percent of the cells used for gene expression profiling were plasma cells, as shown by two-color flow cytometry using CD138^+/CD45^− and CD38^+/ CD45^− markers, the presence of cytoplasmic immunoglobulin light chains by immunocytochemistry, and morphology by Wright-Giemsa staining. Total RNA was isolated with RNeasy Mini Kit (Qiagen, Valencia, Calif.). Preparation of labeled cRNA and hybridization to U95Av2 microarrays containing approximately 10,000 genes (Affymetrix, Santa Clara, Calif.) was performed as previously described (Zhan et al., 2002; Zhan et al., 2003). RNA amplification was not required.
To see if multiple myeloma plasma cells also upregulate the genes in response to drugs used to treat this disease, gene expression profiling of multiple myeloma plasma cells was performed before and after 48 hour in vivo treatment with thalidomide (FIG. 33), ImiD (FIG. 34), PS-341 (FIG. 32), or dexamethasone (FIG. 35). […] In support of this notion, […] and FRZB were expressed at low to undetectable levels in 30 HMCL and several cases of extramedullary disease (FIG. 15).

[2] = tested on: C2C12 cells; assay: Osteoblast differentiation assay (alkaline phosphatase), 5 days; assay type: cell-based, mouse; conditions: 50 ng/ml BMP-2 + 50 ng/ml recombinant human DKK1, 5 days
Protocol: C2C12 mesenchymal precursor cells (American Type Tissue Culture, Reston, Va.) were cultured in DMEM (Invitrogen, Carlsbad, Calif.) supplemented with 10 percent heat-inactivated fetal calf serum. Alkaline phosphatase activity in C2C12 cells was measured as described (Gallea, et al., 2001; Spinella-Jaegle, et al., 2001). Cell lysates were analyzed for protein content using the micro-BCA assay kit (Pierce, Rockford, Ill.).

[3] = tested on: C2C12 cells; assay: Alkaline phosphatase (ALP) assay, BMP-2-induced differentiation; assay type: cell-based, mouse; conditions: 72 hrs
Protocol: ALP activity was measured using ALP kit (Diagnostic Chemical Limited, Exton, Pa.) according to manufacturer instructions. Absorbance The of samples was determined with a Spectra Max340 Microplate Spectrophotometer (Molecular Devices, Sunnyvale, Calif.) at 402 nm. Cell lysates were analyzed for protein content with using the micro-BCA assay kit (Pierce, Rockford, Ill.).
Chemical synthesis of siRNA specific to LRP5/6, GFP, and control siRNA were purchased from Qiagen (Valencia, Calif.). The siRNA were transiently transfected into C2C12 using Lipofectamine according to manufacturer instructions (Invitrogen). RNA was isolated after 24, 48 or 72 hours then subjected to RT-PCR or qPCR for determination of efficacy of target gene silencing.

[4] = tested on: C2C12 cells; assay: GST-E-cadherin binding assay / immunoblot of uncomplexed b-catenin; assay type: cell-based, mouse
[5] = tested on: hFOB 1.19 cells; assay: as above; assay type: cell-based, human; conditions: lowest concentration tested (5 ng/ml)
Protocol: (§1) Cells were incubated in MEM, Wnt3a CM, control CM, or with recombinant Wnt3a for indicated times. For inhibition studies, cells were pretreated with purified recombinant Dkk1 at indicated concentrations or Dkk1 CM, Dkk2 CM, or bone marrow plasma with low or high concentrations of Dkk1 protein for one hour. Following treatment, cells were lysed as described (Qiang et al., 2002). Cell lysates were separated by SDS-PAGE and transferred to Immobilon polyvinylidene difluoride membranes (Millipore, Bedford, Mass.). Immunoblotting was performed using the indicated antibodies.
(§2) The GST-E-cadherin binding assay was performed as described (Bafico et al., 1998). Briefly, the beta-catenin binding site of E-cadherin as a GST-fusion protein was purified using GST beads. GST-E-cadherin was used to precipitate uncomplexed b-catenin present in 500 ng of cell lysate. Precipitated b-catenin was detected by immunoblotting using a b-catenin monoclonal antibody. Non-phosphorylated b-catenin was detected with a monoclonal antibody specific for b-catenin dephosphorylated at residues of 27-37 (Alexis, San Diego, Calif.).

[6] = tested on: Saos-2 cells; assay: as above; assay type: cell-based, human
Protocol: as §1, §2
The GST-E-cadherin binding assay was performed as described (Bafico et al., 1998). […] Precipitated beta-catenin was detected by immunoblotting analysis using a b-catenin monoclonal antibody (Qiang et al., 2005).

[7] = tested on: C2C12 cells; assay: OPG mRNA (qPCR) and protein (ELISA) in osteoblast cells; assay type: cell-based, mouse
Protocol: (§3) C2C12 cells were cultured in 6-well plates in DMEM with 10% FBS and maintained at subconfluence. MM cells (5×10^5/ml) were seeded on the C2C12 in the presence or absence of Wnt3a-CM or Cont-CM for indicated times. For coculture with primary cells, CD138 positive cells were cultured on of the C2C12 monolayer […] in the presence or absence of rWnt3a with and without anti-DKK1 antibody (R&D System) for 48 hours. Total RNA was isolated using TRIZOL reagent (Invitrogen). Supernatants were harvested for protein analysis.
(§4) Microtiter plates were coated with 50 μl of anti-DKK1 antibody (R&D Systems, Minneapolis, Minn.) according to manufacturer recommendations. Bone marrow serum (1:50) in dilution buffer was added and incubated overnight at 4° C. Plates were washed and incubated with biotinylated goat anti-human DKK1 IgG (R&D Systems, Minneapolis, Minn.) followed by streptavidin-horseradish peroxidase (Vector Laboratories), according to manufacturer recommendations. The concentrations of OPG and RANKL proteins in cultured supernatant were measured using the kits from according to manufacturer recommendations (R&D Systems, Minneapolis, Minn.).
(§5) One microgram of total RNA was reverse transcribed into total cDNA. Quantitative PCR (qPCR) was performed using an ABI Prism 7000 sequence detection system (Applied Biosystems, Foster City, Calif.). The reaction mixture contained 1 ml of cDNA, dedicated buffers with specific primers and probes (5′-labeled by 6-carboxy-fluorescein and 3′-labeled by 1-carboxy-teteramethyrhdamine), and DNA polymerase in a total 20 ml volume. […] Each cDNA sample was analyzed in triplicate in parallel with GAPDH as a control. Changes in mRNA concentration were determined by subtracting the CT (threshold cycle) of target gene from the CT of GAPDH (Δ=CT gene−CT GAPDH). The mean of Δ control was subtracted from the ΔSiLRP5/6 reaction (mean Δ control−ASiLRP5/6=e) The difference was calculated as 2^e by the ^2-ΔΔCT (Livak and Schmittgen, 2001).

[8] = tested on: C2C12 cells; assay: RANKL mRNA (qPCR) in osteoblast cells; assay type: cell-based, mouse; conditions: 48 hours
Protocol: as §3, §5

[9] = tested on: C2C12 cells; assay: TOPflash LEF/TCF luciferase reporter gene assay; assay type: cell-based; conditions: mouse pre-osteoblasts
Protocol: Cells plated at 5×10^4 per well in a 12-well plate were transiently co-transfected with […] of either TOPflash, FOPflash (Korinek et al., 1997), or Cbfa-1-luc (kindly provided by Dr. Ying Zhang, NCI, NIH) and 50 ng of pSV-b-galactosidase vector to normalize for transfection efficiency using Lipofectamine according to manufacturer instructions (Invitrogen). Following transfection, cells were exposed to Wnt3a CM or control CM for 24 hr prior to luciferase assay. Luciferase activity was measured as previously described (Qiang et al., 2003).

[10] = tested on: Saos-2 cells; assay: OPG mRNA (qPCR) and protein (ELISA) in osteoblast cells; assay type: cell-based, human
Protocol: as §4
as §5, with “Calif.).” for “Calif.). The reaction mixture contained 1 ml of cDNA, dedicated buffers with specific primers and probes (5′-labeled by 6-carboxy-fluorescein and 3′-labeled by 1-carboxy-teteramethyrhdamine), and DNA polymerase in a total 20 ml volume.”, “2001). […]” for “2001).”

[11] = tested on: MG63 cells; assay: OPG mRNA (qPCR) in osteoblast cells; assay type: cell-based, human; conditions: data not shown
Protocol: One microgram of total RNA was reverse transcribed into total cDNA. Quantitative PCR (qPCR) was performed using an ABI Prism 7000 sequence detection system (Applied Biosystems, Foster City, Calif.). The reaction mixture contained […], dedicated buffers with specific primers and probes (5′-labeled by 6-carboxy-fluorescein and 3′-labeled by 1-carboxy-teteramethyrhdamine), and DNA polymerase in a total […]. Following 2 min incubation at 50° C. and 10 min incubation at 95° C. for denaturing, the reaction was subjected to 40-cycle amplification at 95° C. for 15 s to denature and at 60° C. for 1 min for annealing/extension. Each cDNA sample was analyzed in triplicate in parallel with GAPDH as a control. Changes in mRNA concentration were determined by subtracting the CT (threshold cycle) of target gene from the CT of GAPDH (Δ=CT gene−CT GAPDH). The mean of Δ control was subtracted from the ΔSiLRP5/6 reaction (mean Δ control−ASiLRP5/6=e) The difference was calculated as 2^e by the ^2-ΔΔCT (Livak and Schmittgen, 2001).

[12] = dose- and time-dependent, maximum reached

How did the “DKK-1 and FRZB expression after drug treatment” value [1] turn out when `CC(C)C[C@H](NC(=O)[C@H](Cc1ccccc1)NC(=O)c1cnccn1)B(O)O` [PS-341] was run?
The value was “massively upregulated in many cases”.

`O=C1CCC(N2C(=O)c3ccccc3C2=O)C(=O)N1` (stereo not shown) [thalidomide] was tested. Which “DKK-1 and FRZB expression after drug treatment” value [1] did it give?
Its value is “massively upregulated in many cases”.

B1: recombinant human DKK1: recombinant Dickkopf-1 protein, soluble inhibitor of Wnt signaling (protein)
chain: TLNSVLNSNAIKNLPPPLGGAAGHPGSAVSAAPGILYPGGNKYQTIDNYQPYPCAEDEECGTDEYCASPTRGGDAGVQICLACRKRRKRCMRHAMCCPGNYCKNGICVSSDQNHFRGEIEETITESFGNDHSTLDGYSRRTTLSSKMYHTKGQEGSVCLRSSDCASGLCCARHFWSKICKPVLKEGQVCTKHRRKGSHGLEIFQRCYCGEGLSCRIQKDHHQASNSSRLHTCQRH
How did the “alkaline phosphatase production with BMP-2 plus DKK1” value [2] turn out when B1 was run?
Its value is “not produced”.

What about the “BMP-2-induced ALP activity after Dkk1 pretreatment” value ([3]; 100 ng/ml Dkk1, presence or absence of Wnt3a) of the same molecule?
Its value is “significantly inhibited ALP activity”.

What about the “concentration of maximal inhibition of Wnt3a-increased non-phosphorylated b-catenin” value ([4]; pretreatment before Wnt3a) of the same molecule?
Its value is 50 ng/mL.

What about the “b-catenin level (pull-down assay)” value ([4]; recombinant DKK1 before Wnt3a) of the same molecule?
Its value is “reduced”.

What about the “inhibition of Wnt3a-increased non-phosphorylated b-catenin” value [5] of the same molecule?
Its value is “pronounced inhibition”.

What about the “inhibition of Wnt3a-increased non-phosphorylated b-catenin” value ([6]; lowest concentration tested (5 ng/ml)) of the same molecule?
The value was “pronounced inhibition”.

What about the “b-catenin level (pull-down assay)” value ([6]; recombinant DKK1 before Wnt3a) of the same molecule?
Its value is “reduced”.

And the “Wnt3a-induced increase in OPG mRNA in presence of DKK1” value ([7]; 100 ng/ml of DKK1 in culture media)?
The value was “significantly inhibited”.

And the “RANKL mRNA decreased by Wnt3a, after DKK1 pretreatment” value ([8]; 100 ng/ml DKK1 pretreatment)?
The value was “restored”.

And the “Wnt3a-induced TCF/LEF transcriptional activity in presence of Dkk1” value [9]?
The value was “completely attenuates”.

B2: Wnt3a: recombinant Wnt3a (R&D Systems), canonical Wnt ligand (protein, UniProt P56704 19-352, looked up)
Protein Wnt-3a: SYPIWWSLAVGPQYSSLGSQPILCASIPGLVPKQLRFCRNYVEIMPSVAEGIKIGIQECQHQFRGRRWNCTTVHDSLAIFGPVLDKATRESAFVHAIASAGVAFAVTRSCAEGTAAICGCSSRHQGSPGKGWKWGGCSEDIEFGGMVSREFADARENRPDARSAMNRHNNEAGRQAIASHMHLKCKCHGLSGSCEVKTCWWSQPDFRAIGDFLKDKYDSASEMVVEKHRESRGWVETLRPRYTYFKVPTERDLVYYEASPNFCEPNPETGSFGTRDRTCNVSSHGIDGCDLLCCGRGHNARAERRREKCRCVFHWCCYVSCQECTRVYDVHTCK
For B2, which “ALP activity, factor alone” value ([3]; DMEM with 2% horse serum) is on record?
Its value is “no effect”.

What about the “increase of OPG protein relative to controls (ELISA of supernatants)” value [7] of the same molecule?
The value was 2000 fold.

And the “increase of OPG mRNA” value [7, 12]?
The value was 40 fold.

And the “increase of OPG protein relative to controls (ELISA of supernatants)” value [10]?
The value was 4 fold.

And the “increase of OPG mRNA” value [10, 12]?
The value was 2 fold.

And the “increase of OPG mRNA” value [11]?
The value was 1.5 fold.

What about the “RANKL mRNA after Wnt3a” value [8] of the same molecule?
Its value is “significant decrease in RANKL mRNA”.
